B1: Composite Human anti-CLEVER-1 antibody VH2/VK2 (antibody, human IgG4, V domains shown)
VH: QVTLKESGPTLVKPTQTLTLTCSFSGFSLSTSGMGIGWIRQPSGKALEWLAHIWWDDDKRYNPALKSRLTISKDTSKNQVVLTMTNMDPVDTATYYCARHYGYDPYYAMDYWGQGTLVTVSS
VL: QIVLTQSPGTLSLSPGERATMSCTASSSVSSSYLHWYQQKPGKAPKLCIYRTSNLASGVPSRFSGSGSGTDYTLTISSLQPEDFATYYCHQYHRSPPTFGQGTKLEIK
B2: Composite Human anti-CLEVER-1 antibody VH3/VK1 (antibody, human IgG4, V domains shown)
VH: QVTLKESGPTLVKPTQTLTLTCSFSGFSLSTSGMGIGWIRQPPGKALEWLAHIWWDDDKRYNPALKSRLTISKDTSKNQVVLTMTNMDPVDTATYYCARHYGYDPYYAMDYWGQGTLVTVSS
VL: QIVLTQSPGILSLSPGERATMSCTASSSVSSSYLHWYQQKPGKAPKLCIYRTSNLASGVPSRFSGSGSGTDYTLTISSLQAEDFATYYCHQYHRSPPTFGQGTKLEIK
B3: Composite Human anti-CLEVER-1 antibody VH4/VK1 (antibody, human IgG4, V domains shown)
VH: QVTLKESGPTLVKPTQTLTLTCTFSGFSLSTSGMGIGWIRQPPGKALEWLAHIWWDDDKRYNPALKSRLTISKDTSKNQVVLTMTNMDPVDTATYYCARHYGYDPYYAMDYWGQGTLVTVSS
VL: QIVLTQSPGILSLSPGERATMSCTASSSVSSSYLHWYQQKPGKAPKLCIYRTSNLASGVPSRFSGSGSGTDYTLTISSLQAEDFATYYCHQYHRSPPTFGQGTKLEIK
B4: Composite Human anti-CLEVER-1 antibody VH1/VK2 (antibody, human IgG4, V domains shown)
VH: QVTLKESGPTIVKPTQTLTLTCSFSGFSLNTSGMGIGWIRQPSGKALEWLAHIWWDDDKRYNPALKSRLTISKDTSKNQVVLTMTNMDPVDTATYYCARHYGYDPYYAMDYWGQGTSVTVSS
VL: QIVLTQSPGTLSLSPGERATMSCTASSSVSSSYLHWYQQKPGKAPKLCIYRTSNLASGVPSRFSGSGSGTDYTLTISSLQPEDFATYYCHQYHRSPPTFGQGTKLEIK
B5: Composite Human anti-CLEVER-1 antibody VH1/VK1 (antibody, human IgG4, V domains shown)
VH: QVTLKESGPTIVKPTQTLTLTCSFSGFSLNTSGMGIGWIRQPSGKALEWLAHIWWDDDKRYNPALKSRLTISKDTSKNQVVLTMTNMDPVDTATYYCARHYGYDPYYAMDYWGQGTSVTVSS
VL: QIVLTQSPGILSLSPGERATMSCTASSSVSSSYLHWYQQKPGKAPKLCIYRTSNLASGVPSRFSGSGSGTDYTLTISSLQAEDFATYYCHQYHRSPPTFGQGTKLEIK
B6: Composite Human anti-CLEVER-1 antibody VH1/VK4 (antibody, human IgG4, V domains shown)
VH: QVTLKESGPTIVKPTQTLTLTCSFSGFSLNTSGMGIGWIRQPSGKALEWLAHIWWDDDKRYNPALKSRLTISKDTSKNQVVLTMTNMDPVDTATYYCARHYGYDPYYAMDYWGQGTSVTVSS
VL: QIVLTQSPGILSLSPGERATMSCTASSSVSSSYLHWYQQKPGKAPKLLIYRTSNLASGVPSRFSGSGSGTDYTLTISSLQAEDFATYYCHQYHRSPPTFGQGTKLEIK
B7: Composite Human anti-CLEVER-1 antibody VH3/VK2 (antibody, human IgG4, V domains shown)
VH: QVTLKESGPTLVKPTQTLTLTCSFSGFSLSTSGMGIGWIRQPPGKALEWLAHIWWDDDKRYNPALKSRLTISKDTSKNQVVLTMTNMDPVDTATYYCARHYGYDPYYAMDYWGQGTLVTVSS
VL: QIVLTQSPGTLSLSPGERATMSCTASSSVSSSYLHWYQQKPGKAPKLCIYRTSNLASGVPSRFSGSGSGTDYTLTISSLQPEDFATYYCHQYHRSPPTFGQGTKLEIK
B8: Composite Human anti-CLEVER-1 antibody VH3/VK4 (antibody, human IgG4, V domains shown)
VH: QVTLKESGPTLVKPTQTLTLTCSFSGFSLSTSGMGIGWIRQPPGKALEWLAHIWWDDDKRYNPALKSRLTISKDTSKNQVVLTMTNMDPVDTATYYCARHYGYDPYYAMDYWGQGTLVTVSS
VL: QIVLTQSPGILSLSPGERATMSCTASSSVSSSYLHWYQQKPGKAPKLLIYRTSNLASGVPSRFSGSGSGTDYTLTISSLQAEDFATYYCHQYHRSPPTFGQGTKLEIK
B9: Composite Human anti-CLEVER-1 antibody VH4/VK4 (antibody, human IgG4, V domains shown)
VH: QVTLKESGPTLVKPTQTLTLTCTFSGFSLSTSGMGIGWIRQPPGKALEWLAHIWWDDDKRYNPALKSRLTISKDTSKNQVVLTMTNMDPVDTATYYCARHYGYDPYYAMDYWGQGTLVTVSS
VL: QIVLTQSPGILSLSPGERATMSCTASSSVSSSYLHWYQQKPGKAPKLLIYRTSNLASGVPSRFSGSGSGTDYTLTISSLQAEDFATYYCHQYHRSPPTFGQGTKLEIK
B10: humanized anti-CLEVER-1 antibody FAR02 VH3/VK5 (antibody, V domains shown)
VH: QVTLKESGPTLVKPTQTLTLTCSFSGFSLSTSGMGIGWIRQPPGKALEWLAHIWWDDDKRYNPALKSRLTISKDTSKNQVVLTMTNMDPVDTATYYCARHYGYDPYYAMDYWGQGTLVTVSS
VL: EIVLTQSPGTLSLSPGERATLSCTASSSVSSSYLHWYQQKPGKAPKLLIYRTSNLASGVPSRFSGSGSGTDYTLTISSLQPEDFATYYCHQYHRSPPTFGQGTKLEIK
notes: Named as a potential lead; also called FAR02 VH3A/K5
B11: Composite Human anti-CLEVER-1 antibody VH4/VK2 (antibody, human IgG4, V domains shown)
VH: QVTLKESGPTLVKPTQTLTLTCTFSGFSLSTSGMGIGWIRQPPGKALEWLAHIWWDDDKRYNPALKSRLTISKDTSKNQVVLTMTNMDPVDTATYYCARHYGYDPYYAMDYWGQGTLVTVSS
VL: QIVLTQSPGTLSLSPGERATMSCTASSSVSSSYLHWYQQKPGKAPKLCIYRTSNLASGVPSRFSGSGSGTDYTLTISSLQPEDFATYYCHQYHRSPPTFGQGTKLEIK
B12: Composite Human anti-CLEVER-1 antibody VH2/VK3 (antibody, human IgG4, V domains shown)
VH: QVTLKESGPTLVKPTQTLTLTCSFSGFSLSTSGMGIGWIRQPSGKALEWLAHIWWDDDKRYNPALKSRLTISKDTSKNQVVLTMTNMDPVDTATYYCARHYGYDPYYAMDYWGQGTLVTVSS
VL: EIVLTQSPGTLSLSPGERATMSCTASSSVSSSYLHWYQQKPGKAPKLCIYRTSNLASGVPSRFSGSGSGTDYTLTISSLQPEDFATYYCHQYHRSPPTFGQGTKLEIK
B13: Composite Human anti-CLEVER-1 antibody VH2/VK4 (antibody, human IgG4, V domains shown)
VH: QVTLKESGPTLVKPTQTLTLTCSFSGFSLSTSGMGIGWIRQPSGKALEWLAHIWWDDDKRYNPALKSRLTISKDTSKNQVVLTMTNMDPVDTATYYCARHYGYDPYYAMDYWGQGTLVTVSS
VL: QIVLTQSPGILSLSPGERATMSCTASSSVSSSYLHWYQQKPGKAPKLLIYRTSNLASGVPSRFSGSGSGTDYTLTISSLQAEDFATYYCHQYHRSPPTFGQGTKLEIK
B14: Composite Human anti-CLEVER-1 antibody VH2/VK1 (antibody, human IgG4, V domains shown)
VH: QVTLKESGPTLVKPTQTLTLTCSFSGFSLSTSGMGIGWIRQPSGKALEWLAHIWWDDDKRYNPALKSRLTISKDTSKNQVVLTMTNMDPVDTATYYCARHYGYDPYYAMDYWGQGTLVTVSS
VL: QIVLTQSPGILSLSPGERATMSCTASSSVSSSYLHWYQQKPGKAPKLCIYRTSNLASGVPSRFSGSGSGTDYTLTISSLQAEDFATYYCHQYHRSPPTFGQGTKLEIK
B15: Composite Human anti-CLEVER-1 antibody VH1/VK3 (antibody, human IgG4, V domains shown)
VH: QVTLKESGPTIVKPTQTLTLTCSFSGFSLNTSGMGIGWIRQPSGKALEWLAHIWWDDDKRYNPALKSRLTISKDTSKNQVVLTMTNMDPVDTATYYCARHYGYDPYYAMDYWGQGTSVTVSS
VL: EIVLTQSPGTLSLSPGERATMSCTASSSVSSSYLHWYQQKPGKAPKLCIYRTSNLASGVPSRFSGSGSGTDYTLTISSLQPEDFATYYCHQYHRSPPTFGQGTKLEIK
B16: Composite Human anti-CLEVER-1 antibody VH2/VK5 (antibody, human IgG4, V domains shown)
VH: QVTLKESGPTLVKPTQTLTLTCSFSGFSLSTSGMGIGWIRQPSGKALEWLAHIWWDDDKRYNPALKSRLTISKDTSKNQVVLTMTNMDPVDTATYYCARHYGYDPYYAMDYWGQGTLVTVSS
VL: EIVLTQSPGTLSLSPGERATLSCTASSSVSSSYLHWYQQKPGKAPKLLIYRTSNLASGVPSRFSGSGSGTDYTLTISSLQPEDFATYYCHQYHRSPPTFGQGTKLEIK
notes: Named as a potential lead
B17: Composite Human anti-CLEVER-1 antibody VH1/VK5 (antibody, human IgG4, V domains shown)
VH: QVTLKESGPTIVKPTQTLTLTCSFSGFSLNTSGMGIGWIRQPSGKALEWLAHIWWDDDKRYNPALKSRLTISKDTSKNQVVLTMTNMDPVDTATYYCARHYGYDPYYAMDYWGQGTSVTVSS
VL: EIVLTQSPGTLSLSPGERATLSCTASSSVSSSYLHWYQQKPGKAPKLLIYRTSNLASGVPSRFSGSGSGTDYTLTISSLQPEDFATYYCHQYHRSPPTFGQGTKLEIK
B18: Composite Human anti-CLEVER-1 antibody VH4/VK5 (antibody, human IgG4, V domains shown)
VH: QVTLKESGPTLVKPTQTLTLTCTFSGFSLSTSGMGIGWIRQPPGKALEWLAHIWWDDDKRYNPALKSRLTISKDTSKNQVVLTMTNMDPVDTATYYCARHYGYDPYYAMDYWGQGTLVTVSS
VL: EIVLTQSPGTLSLSPGERATLSCTASSSVSSSYLHWYQQKPGKAPKLLIYRTSNLASGVPSRFSGSGSGTDYTLTISSLQPEDFATYYCHQYHRSPPTFGQGTKLEIK
notes: Named as a potential lead

Biological target: T1, CLEVER-1 coated on the ELISA plate (competition ELISA, Examples 5 and 10) (human, UniProt Q9NY15 26-1027, limits assumed)
T1 construct: Coated at 1 ug/ml in PBS; also called human Clever-1
T1 sequence (looked up): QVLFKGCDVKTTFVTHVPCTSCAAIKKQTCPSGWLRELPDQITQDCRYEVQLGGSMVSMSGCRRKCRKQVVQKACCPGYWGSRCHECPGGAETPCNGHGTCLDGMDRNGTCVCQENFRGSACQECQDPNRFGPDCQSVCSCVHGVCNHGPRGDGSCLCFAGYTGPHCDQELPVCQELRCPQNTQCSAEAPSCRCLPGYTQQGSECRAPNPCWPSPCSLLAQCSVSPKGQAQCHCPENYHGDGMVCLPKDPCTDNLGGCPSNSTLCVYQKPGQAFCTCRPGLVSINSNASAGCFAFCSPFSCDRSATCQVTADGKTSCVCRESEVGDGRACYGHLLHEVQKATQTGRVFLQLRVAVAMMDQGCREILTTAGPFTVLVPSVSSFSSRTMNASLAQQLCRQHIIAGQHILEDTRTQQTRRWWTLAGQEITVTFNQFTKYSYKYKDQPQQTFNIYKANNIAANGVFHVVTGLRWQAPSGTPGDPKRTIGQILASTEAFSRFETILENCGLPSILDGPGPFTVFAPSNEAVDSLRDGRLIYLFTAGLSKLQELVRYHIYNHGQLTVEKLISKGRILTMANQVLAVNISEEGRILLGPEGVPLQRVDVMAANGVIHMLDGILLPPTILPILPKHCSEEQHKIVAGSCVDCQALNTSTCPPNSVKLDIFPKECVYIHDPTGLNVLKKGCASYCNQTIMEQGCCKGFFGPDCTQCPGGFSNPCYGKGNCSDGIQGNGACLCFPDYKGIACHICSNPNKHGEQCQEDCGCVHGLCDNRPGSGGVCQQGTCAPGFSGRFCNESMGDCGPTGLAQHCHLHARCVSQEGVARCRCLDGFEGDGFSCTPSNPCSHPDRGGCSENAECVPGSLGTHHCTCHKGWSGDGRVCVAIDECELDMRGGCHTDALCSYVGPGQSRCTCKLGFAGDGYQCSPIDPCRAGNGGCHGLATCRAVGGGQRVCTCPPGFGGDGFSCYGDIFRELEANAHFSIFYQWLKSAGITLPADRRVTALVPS
Assay: competition ELISA on coated CLEVER-1 against biotinylated mouse 3-372
Procedure: These were incubated for 1 hour at room temperature on a 96 well Immulon maxisorp plate (Fisher Cat. No. DIS-971-030J) precoated with 1 μg/ml CLEVER-1. […] The reaction was stopped with 3M HCl, absorbance read at 450 nm on a Dynex Technologies MRX TC II plate reader and the binding curves plotted. IC50 values for each antibody were calculated and these were normalized to the IC50 of the chimera which was included on each respective ELISA plate.

Row | Binder | Relative IC50
1 | B1 | 0.95 relative to the chimera on the same plate
2 | B2 | 0.76 relative to the chimera on the same plate
3 | B3 | 1.86 relative to the chimera on the same plate
4 | B4 | 1.37 relative to the chimera on the same plate
5 | B5 | 0.84 relative to the chimera on the same plate
6 | B6 | 1.17 relative to the chimera on the same plate
7 | B7 | 0.51 relative to the chimera on the same plate
8 | B8 | 0.47 relative to the chimera on the same plate
9 | B9 | 1.2 relative to the chimera on the same plate
10 | B10 | 0.42 relative to the chimera on the same plate
11 | B11 | 0.9 relative to the chimera on the same plate
12 | B12 | 0.7 relative to the chimera on the same plate
13 | B13 | 0.79 relative to the chimera on the same plate
14 | B14 | 0.82 relative to the chimera on the same plate
15 | B15 | 1.63 relative to the chimera on the same plate
16 | B16 | 0.52 relative to the chimera on the same plate
17 | B17 | 1.13 relative to the chimera on the same plate
18 | B18 | 0.46 relative to the chimera on the same plate

Reference: patent US20190194317A1 (FARON PHARMACEUTICALS, published 2019)
